Earlier results in paper PMC4623992.

Target: TLR4 (Homo sapiens) (UniProt O00206)
Sequence of UniProt O00206 (O00206 24-631): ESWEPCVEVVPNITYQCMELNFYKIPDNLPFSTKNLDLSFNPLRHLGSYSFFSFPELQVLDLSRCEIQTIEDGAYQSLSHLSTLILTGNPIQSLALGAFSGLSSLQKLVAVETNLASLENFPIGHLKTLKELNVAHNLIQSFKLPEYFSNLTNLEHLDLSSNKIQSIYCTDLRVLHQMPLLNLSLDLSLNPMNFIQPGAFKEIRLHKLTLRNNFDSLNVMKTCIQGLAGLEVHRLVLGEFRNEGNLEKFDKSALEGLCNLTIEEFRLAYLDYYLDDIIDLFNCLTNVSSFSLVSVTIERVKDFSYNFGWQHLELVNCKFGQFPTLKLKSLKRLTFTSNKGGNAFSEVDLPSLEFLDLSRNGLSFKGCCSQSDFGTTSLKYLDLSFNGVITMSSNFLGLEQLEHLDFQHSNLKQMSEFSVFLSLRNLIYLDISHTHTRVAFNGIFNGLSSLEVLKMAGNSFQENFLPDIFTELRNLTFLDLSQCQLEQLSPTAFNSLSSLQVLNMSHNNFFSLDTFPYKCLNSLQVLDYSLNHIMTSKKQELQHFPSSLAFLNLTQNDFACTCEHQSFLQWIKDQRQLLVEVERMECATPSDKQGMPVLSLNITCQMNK

In the case of MD-2 (from UniProt Q9Y6Y9), the Kd is given as 12 nM.
